Ends that are not written are not given here.
Key:
[1] = target: T1, recombinant SHP-2 protein ( (human SHP-2 cloned for the …, UniProt Q06124 1-593)); test: bead-based flow cytometric binding assay; caveolin-1 (1–50) peptide conjugated to carboxyl beads with EDC; incubated with recombinant CSK or SHP-2 protein (1–10 µg) for 1 h at RT; detected with anti-CSK or anti-SHP-2 and fluorescent secondary antibody; settings: both partners purified
T1 construct: SHP-2 (PTPN11); the in-house construct holds the protein coding region of human SHP-2 in pGEX-6P-1
T1 sequence (looked up): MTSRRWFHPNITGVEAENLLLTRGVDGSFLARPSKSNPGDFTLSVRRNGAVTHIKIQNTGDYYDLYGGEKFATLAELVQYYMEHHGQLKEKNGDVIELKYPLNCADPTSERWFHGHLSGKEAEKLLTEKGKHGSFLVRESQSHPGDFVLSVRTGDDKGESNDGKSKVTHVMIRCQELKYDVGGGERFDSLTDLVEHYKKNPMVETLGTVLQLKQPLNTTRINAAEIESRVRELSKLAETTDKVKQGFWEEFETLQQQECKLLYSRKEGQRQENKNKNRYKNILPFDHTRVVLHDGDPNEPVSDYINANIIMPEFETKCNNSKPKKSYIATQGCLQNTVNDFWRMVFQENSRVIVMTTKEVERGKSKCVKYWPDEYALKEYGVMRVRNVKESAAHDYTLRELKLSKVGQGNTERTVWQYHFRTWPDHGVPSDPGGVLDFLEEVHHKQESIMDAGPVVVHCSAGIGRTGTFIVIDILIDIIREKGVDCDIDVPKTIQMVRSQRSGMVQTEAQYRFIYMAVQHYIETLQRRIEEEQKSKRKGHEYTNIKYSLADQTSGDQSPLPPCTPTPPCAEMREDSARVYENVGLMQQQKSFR

recombinant CSK protein = target: T2, recombinant CSK protein ( (human CSK cloned for the …, UniProt P41240 1-450)); test: as above; settings: both partners purified
T2 construct: CSK; the in-house construct holds the protein coding region of human CSK in pGEX-6P-1

binding result [1]: binds
binding result (recombinant CSK protein): binds
B1: 1–50 mer caveolin-1 peptide (peptide, UniProt Q03135 1-50, looked up)
peptide: MSGGKYVDSEGHLYTVPIREQGNIYKPNNKAMADELSEKQVYDAHTKEID
modifications: not fully specified
notes: caveolin-1 residues 1-50, fifty-amino acid-long synthetic peptide; Conjugated to carboxyl beads with EDC; also called caveolin-1 peptide (1–50); p-caveolin-1 peptide; source: synthetic peptide (PEPTRON)
